Our source for the amyloid nucleation score values is the supplement of paper PMC12042874.

± gives the uncertainty stated by the source.

The series is described as follows: amyloid nucleation score (Sup35N fusion, yeast selection) (log enrichment); library NNK1; higher = more nucleation; inactive = no reads after selection. A digest of the protocol:
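DiMSum was used to calculate nucleation scores as log enrichment of output over input reads, centred on the mode score of non-aggregating sequences. Sequences with fewer than 100 input reads were not scored. Input and output came from Illumina sequencing of plasmid inserts in psi-negative yeast expressing peptides of 20 random codons fused to Sup35N, induced 24 hours with 100 μM copper sulfate and then grown 7 days at 30°C on medium lacking adenine and uracil.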
For VCMWRFLVGRT, the amyloid nucleation score was -0.238 ± 0.9. The figure for RLCAQ is 0.592 ± 0.81; for WGIFSMYHWRYAVRDRSMHS it is “inactive”; for AIWVDVTLFTEKADWVSLRR it is 2.42 ± 0.28. As to VIIKTRLELYKWRTMISSND, the amyloid nucleation score was -0.454 ± 0.63. The entry for GSSFVI is “inactive”; for HIRLAQ it is 0.157 ± 0.76; for SPSES it is -0.31 ± 0.61. Take KLSNEYW: the amyloid nucleation score is -0.485 ± 0.36.

LSCLRSYVTMHMGIIGYLFN had an amyloid nucleation score of 0.218 ± 0.27. Substance RRRFTIGASVCFRQCFYCQG came in with an amyloid nucleation score of -0.491 ± 1.6. For GVLLLIQSGNCRWRRSSRAP, the amyloid nucleation score amounted to 0.344 ± 0.65. The figure for MMDNLVYQRYTCTF is 0.448 ± 0.79; for GKSWLSMKNQISINRRSMIP it is -0.449 ± 0.5. Substance NCFRFCRQLLTAEDDVMCLP gave an amyloid nucleation score of 0.117 ± 0.81. The figure for LCLGHRH is -0.818 ± 1.6; for HPPNFVNVSW it is -0.023 ± 0.51; for IMSCDERWN it is 0.287 ± 0.23.

Substance SFAFAAAYAGEEENRLLMRL returned an amyloid nucleation score of -0.478 ± 0.34. The result for SEWAMRITLATASSQTGGSE reads 0.235 ± 0.32. The result for MKFGGLSG reads -0.171 ± 0.47. The figure for ESKVSGIVIFGGVEIAFYRG is 5.22 ± 0.1.

QRLCNQWMSDKLQY displayed an amyloid nucleation score of 1.84 ± 0.67. For the substance ACCYVDLKIKFNVLPAVNIK, the amyloid nucleation score entry is “inactive”. KDICY returned an amyloid nucleation score of 0.864 ± 0.51. The figure for FYLVATCVAFFRLHWFACN is -0.218 ± 0.36. The figure for VMLFSDVFWALMLHFYDPAF is -1.01 ± 0.61; for MQFNVSWRNGWSRWIGVSDV it is 6.519 ± 0.054; for MLFGC it is -0.003 ± 0.41. The figure for VDSHVYRNT is -0.203 ± 1.1; for TWDSPVPG it is 0.208 ± 0.29; for LQNIFLKACDWLGCWDVDVM it is -0.149 ± 0.93.

For the substance TTPFLHKENLNSIMK, the amyloid nucleation score was determined as 0.396 ± 0.26. The result for DRYVYEFSYVLFWLFILVM reads 0.128 ± 0.44. The result for MGLPVLVINNHTAKNGVTRA reads 0.711 ± 0.73; that for FFYMDKLLCAQSPVRIFR, 0.837 ± 0.84. Turning to CIGTHRIRFNSLLYRDQPII, the amyloid nucleation score is -0.15 ± 0.86. LLLGYVKSSLPIVGYSRMEG gave an amyloid nucleation score of 0.548 ± 0.35. The result for FLSEE reads -0.584 ± 0.44; that for IPLAGLFYSFWISLHTRSNT, -0.308 ± 0.52. The figure for MNYFVMSHSNKLDASLCWRR is 1.52 ± 0.25; for AGYGFKCMGYRLDLKTPFVY it is 0.019 ± 0.59. The result for YLSRGNY reads -0.245 ± 0.79; that for GDNMDEEARWRLPVRFDRAS, -0.013 ± 1.2. CAYSNKE returned an amyloid nucleation score of 0.228 ± 0.34. NRIVADSESYCTSCLAVCAH yielded an amyloid nucleation score of 0.177 ± 0.3.

The substance STLSMTHVASAAVWRLVMPR showed an amyloid nucleation score of 1.41 ± 0.48. The result for TRLSMLIYALTGNVMSGSCV reads 0.505 ± 0.46; that for SNRNAGRKTMGHLWHQE, 0.2 ± 0.42. FFIRIVCLWG had an amyloid nucleation score of 0.659 ± 0.42. The result for PLRNRNCVPYPHDCLSTSLI reads -0.816 ± 1.3; that for CKVSSSFS, 0.258 ± 0.34; that for RFFSGLIVHNLLCLCRPPNP, 6.58 ± 0.078. The figure for HNWSCQVHRDINLDRGAKES is 1.79 ± 0.4; for VCVNSENHNFT it is “inactive”; for RSVRCVLLVAINRVMLG it is 0.52 ± 0.67. The result for NLACGFKSWDFKRMRD reads 0.685 ± 0.51; that for QKWVFVEVCSCRVSLTNLVL, 0.233 ± 0.35; that for FSTFVGHYLSKMKWITVVNS, 0.531 ± 0.36. In turn, MPGRNLRLNKVR gave an amyloid nucleation score of 0.273 ± 0.4. The figure for FAPRSLGFYMNFFPRMMGQR is -0.88 ± 1.5. The figure for DPVSIMTGRQDPRGCGVTCF is -1.96 ± 2.7. The result for VYIVCYFLHTGSFGWTCCVE reads “inactive”. For the substance LAVKEL, the amyloid nucleation score was 0.678 ± 0.54. The result for YVIDGPSLSTCLVRV reads 0.839 ± 0.5; that for KRTLGTRGRIQVKSCPVGEL, -0.467 ± 0.35.

As for SANRA, the amyloid nucleation score was found to be 0.62 ± 0.41.

In turn, LLVSFTENNRPDLILQSHLM gave an amyloid nucleation score of -1.2 ± 1.2.

SHRYFKWLRSIDEEVVESL returned an amyloid nucleation score of 0.677 ± 0.9. The figure for SFLNMGCRTVYRC is 0.331 ± 0.61; for RYWFLSYFHPANNYDDWKNC it is -1.03 ± 1.2; for SDNIYVMAWCSCNAARSIVF it is 0.616 ± 0.18. For the substance WICMAP, the amyloid nucleation score turned out to be 3.42 ± 0.089. As for TLNQHY, the amyloid nucleation score stood at 0.025 ± 0.55. PILSNLHIPMCPENVNGRGS displayed an amyloid nucleation score of 0.939 ± 0.33. LSKISTVK: the amyloid nucleation score was -0.778 ± 0.64. LYVEMEYSFDYYATKDRHQT yielded an amyloid nucleation score of -0.842 ± 1.7. Take GMRIGC: the amyloid nucleation score stood at 0.023 ± 0.95. The result for SGFENRDSIPIAPCIRLLLV reads -0.056 ± 0.59.

With KVSPIMDEN, the amyloid nucleation score was determined as 0.547 ± 0.37. The figure for GFEWVRVYWWGSYVGKRMGT is -0.219 ± 0.91. The figure for TLDRWTVWDLR is 0.275 ± 0.32. Consider LLHHYGGYELVSDWTIAKF, for which the amyloid nucleation score turned out to be 0.364 ± 0.31. The figure for FGVTIPQVWVEC is -0.961 ± 1.7; for FCEWYLTDDFFYSLCFFFNE it is 0.031 ± 0.55; for SLDGNFTKALLLKIR it is 1.08 ± 0.35. The entry for TLLWGTLSAGHS is “inactive”; for MNGSNRSCLFFCIGCVMPAW it is 7.5 ± 0.081; for HAEWGGDAKPTRYRRRNEAG it is “inactive”. The figure for PHRFVN is -0.188 ± 0.3; for MSTVFADLR it is -0.292 ± 0.29; for SESTYYDIQLPVHMLVDMSE it is 0.257 ± 0.24. For the substance VFNRFCYSSFCLTYRDYDSQ, the amyloid nucleation score was 8.198 ± 0.07. The figure for LIFLDMAVL is -0.403 ± 1.4; for NYSVFVTSI it is 0.365 ± 0.5. The result for YLPYVNLAG reads -1.07 ± 2.4; that for KIMLSRMYNQYMGCQVKFW, -0.409 ± 0.51; that for SNCRDKRFMY, 0.637 ± 0.79.

In turn, KDQTTYMDCFV showed an amyloid nucleation score of 0.101 ± 0.49. Substance SHCCLDQLGVSDKAR showed an amyloid nucleation score of 0.142 ± 0.62. The figure for YGGIVNDVFAGLQNIMGVAL is 0.334 ± 0.54. The substance IGALTSHAHQNVCVCNLLKD displayed an amyloid nucleation score of 0.307 ± 0.81. VNPNGGEDNVLGCPIRSWQW registered an amyloid nucleation score of -0.031 ± 1.2.

For DLHLTNVSTRARPRLGLAAR, the amyloid nucleation score was 0.705 ± 0.56. The substance VLAPFVLPC yielded an amyloid nucleation score of -0.406 ± 0.41.

Substance KYMTDIIT yielded an amyloid nucleation score of 0.413 ± 0.2. With LITLAFVVSCVSYSRGSKRR, the amyloid nucleation score came to 1.26 ± 0.17. The substance LFIYDLQLRHDYHQGYELES returned an amyloid nucleation score of 0.544 ± 0.9. The substance NCKFEKSLKPPHGPYNGNQY gave an amyloid nucleation score of 0.292 ± 0.42. The figure for FASARQLMQTTDKHSVWYVV is -1.87 ± 1.8; for SSFIAYASSDTWFTVKA it is 1.09 ± 0.36; for FWPCFSWYC it is 2.16 ± 0.15. VDFLSTNFWSLSVPVAFLGV came in with an amyloid nucleation score of -0.31 ± 0.54.

RGNLAGLVLMNRHGCV returned an amyloid nucleation score of 0.078 ± 0.4. The figure for EWTSCMPLAFMLPLVILSFA is 0.532 ± 0.7; for IYIIPFDRNLYPISIHVLVR it is “inactive”; for SISRGWFMWEDNRISRFLLI it is 0.266 ± 0.37. The result for ARTRVTLSR reads -0.072 ± 0.98; that for GVTMVISPPYVMAGRSDMFL, -0.031 ± 0.65; that for RWSYA, 0.981 ± 0.58. As for ESTGQFYSPGSWVQGWTAYM, the amyloid nucleation score was determined as 0.398 ± 0.66. For NYSSINLWPCVMLNFRYL, the amyloid nucleation score entry is “inactive”. The substance GFTGARVSTQHRLRGN returned an amyloid nucleation score of -0.245 ± 0.84. The result for SYNDQSVAYCVLIAETVWYC reads 7.742 ± 0.055.

CCTDIISQRIVGYLMVVC: the amyloid nucleation score is -0.755 ± 0.68.

RDGPSK gave an amyloid nucleation score of -0.422 ± 0.33. The result for DTSFYIMLNYITIQYNSFAG reads 7.86 ± 0.054; that for AIVVKNDFTGSPRF, “inactive”; that for GTSTHIIFGMAVSSVRRYHM, 1.33 ± 0.33. Regarding YKGRTPSSRLASLVCRGG, the amyloid nucleation score is -0.198 ± 0.64. NLGIWPLYPYFFWLGQIWGD came in with an amyloid nucleation score of 0.022 ± 0.77. With LGRLAVDHLVCRRYDSSLHN, the amyloid nucleation score worked out at 0.089 ± 1.1. The result for MCDGTFCGSSSGHCSASLRH reads 0.728 ± 0.35. In the case of LNVIQPSWDRNFHFEVRFGH, the amyloid nucleation score turned out to be 7.942 ± 0.061.

In turn, FSDMDVTQPENKDWHLEE returned an amyloid nucleation score of 1.23 ± 0.9. The result for VYWRREVSI reads 0.312 ± 1.2.

In turn, TRYVNMIFPPLVCWGDEILW displayed an amyloid nucleation score of 0.873 ± 0.77. The entry for VWNNKECANFDNIWATLLIV is “inactive”; for KFYSMKTSNFWCI it is 2.04 ± 0.18. The result for SGSNEWSRENLIGVFVVPGQ reads -0.21 ± 1.1; that for IHALLRQNMD, -0.599 ± 0.39.

With KVDLLA, the amyloid nucleation score is -0.13 ± 0.56. The result for IVENARWKVAAEPRNRRSSV reads 0.273 ± 0.58.
